Measurements from patent US8323941B2, “Histone demethylation mediated by the nuclear amine oxidase homolog LSD1” (President and Fellows of Harvard College, priority 2004, dated 2012).

How the values were obtained:
LSD1 [1] = biological target: T1, LSD1 (Homo sapiens, UniProt O60341); experiment: LSD1 demethylation assay on free (bulk) histones, Western blotting; assay type: biochemical; design: Full length (1-851aa) and C-terminal deleted (1-427 aa) human LSD1 cDNAs; 6xHis (N); made in house; host or cells: bacteria (IPTG induction); details: H3-K4 demethylation, recombinant LSD1
Description: (§1) Demethylation assay. LSD1 demethylation activity on free histone or nucleosomal histone was carried out as previously reported (Shi et al., 2004). Briefly, bulk histones or mononucleosomes were incubated with purified His-LSD1 with or without purified His-CoREST, His-CoREST mutants, His-BHC80 and/or GST-HDAC1 in the histone demethylase activity (HDM) assay buffer (50 mM Tris pH8.5, 50 mM KCl, 5 mM MgCl, 0.5% BSA and 5% glycerol) from 10 mins up to 1 hour at 37° C. The demethylase activity of LSD1 under various conditions was evaluated by Western blotting using K4-H3 methylation-specific antibodies.

LSD1 [2] = biological target: T1, LSD1; experiment: LSD1 demethylation assay on nucleosomal substrates (mononucleosomes), Western blotting; assay type: biochemical; design: Full length (1-851aa) and C-terminal deleted (1-427 aa) human LSD1 cDNAs; 6xHis (N); made in house; host or cells: bacteria
Description: Preparation of mononucleosome. Mononucleosome was made according to a standard protocol (Tagami et al., 2004; Utley et al., 1996). Briefly, nuclear pellet from both TSA-treated or non-treated HeLa cells was homogenized for 60 times with type A pestle to obtain oligo-nucleosomes. The oligo-nucleosomes were then digested with micrococcal nuclease (40 units/mL) for 10 mins at 30° C. The nuclease is inactivated by 5 mM EDTA. Digested materials were spun at 14000 rpm for 3 mins. Resulting supernatant was spun again for additional 3 mins at the same speed. Supernatant from the second spin was subject to 10-25% glycerol gradient sedimentation. The monocleosome-containing fractions were identified by examining aliquots of fractions (treated with proteinase K) on DNA agarose gel. An aliquot of TSA-treated or non TSA-treated mononucleosome, a kind gift from Dr. Yoshihiro Nakatani's Lab in Dana Faber Cancer Institute, Harvard Medical School (Tagami et al., 2004), was used here as a control for the quality of mononucleosome made in our lab.
as §1

effect of added protein on ability of recombinant LSD1 to demethylate nucleosomal substrates (LSD1 [2]; bacterially purified protein added to recombinant LSD1): no effect
Substance: BHC80: PHD domain-containing component of the BRAF35/HDAC2 complex, recombinant
effect on LSD1 demethylase activity on free histones (LSD1 [1]): significantly dampened
demethylase activity of LSD1/CoREST (LSD1 [2]; increasing amounts of BHC80, nucleosomal substrates): proportional decrease
